Experimental data: patent publication EP0485563B1, “POLYETHER-SUBSTITUTED TUMOR AGENTS” (Deutsches Krebsforschungszentrum Stiftung des öffentlichen …, priority 1990, dated 1991)

Columns and labels:
[1] = Photodynamic activity of the photosensitiser
[2] = test system: experimentelle Tumoren und Xenotransplantate, human; experiment: Accumulation (concentration) of radiolabelled agents in experimental tumours and human xenografts; assay type: in vivo, Ratte; Nacktmaus; details: 300 µC = 11,1 MBq administered; 1a and 1c in all tumours/xenografts of the 2nd table, compound of Beispiel 2 only in Walker Carcinosarcom, Osteosarcom, Ovarialcarcinom (O-342)
Text: Schließlich wurden für CT-Untersuchungen die folgenden Verbindungen gemäß Beispiel 2 hergestellt: • 4a) Tri-jod-phenol-CMPEG • 4b) Tri-jod-benzoesäure-AMPEG • 4c) Iodoxaminsäure-(AMPEG)₂ Die Anreicherung (Konzentrierung) dieser Mittel wurde an folgenden experimentellen Tumoren und an folgenden Tiermodellen geprüft:
Alle diese experimentellen Tumoren und Xenotransplantate wurden mit den Verbindungen a und c gemäß Beispiel 1 (also 1a und 1c) und drei davon, nämlich das Walker Carcinosarcom, das Osteosarcom und das Ovarialcarcinom (O-342) auch mit dem Diphosphonat gemäß Beispiel 2 untersucht.
(§1) Bei allen diesen Anwendungsversuchen wurden immer 300 µC = 11,1 MBq verabreicht. ES zeigten sich mit den eingesetzten Mitteln, nämlich 1a und 1c und die Verbindung aus Beispiel 2 eine Konzentration von mindestens 30 % des Mittels an der gewünschten Stelle, also am Tumor. Die beigefügte Fig. 4 zeigt das Bild einer BDIX-Rattemit Ovarialcarcinom 42 h nach Injektion, die mit ¹³¹J-HOPAD-CMPEG, also ¹³¹J-Hydroxyphenyl-1-aminomethan-1,1-diphosphonat- Cyanurchlorid aktiviertes Polyethylenglykol (n = ca. 100 bis 110) in einer Menge von 300 µC behandelt war. Das Bild zeigt, daß ganz unten, im Tumor ca. 30 +/- 2 % des Mittels konzentriert sind, während in der Mitte die Leber ca. 10 % zeigt und die Schilddrüse, die oberhalb der Leber sichtbar ist, weit weniger als 2 % des Mittels aufgenommen hat. Diese %-Angaben beziehen sich auf die Gesamtmenge an die mit radiojadmarkierten Mittel im Gesamtkörper der Ratte.

[3] = test system: Ovarialcarcinom; experiment: Whole-body distribution of radioiodine-labelled agent in tumour-bearing rat (Fig. 4, Fig. 5); assay type: in vivo, BD IX Ratte
Method: as §1
Die beigefügte Fig. 5 zeigt die Messung einer mit ¹³¹I TOP-(CMPEG)4 behandelten BD IX Ratte (auch hier Ovarialcarcinom). Es zeigt sich ein ähnliches Ergebnis wie das von Fig. 4.
Von der gesamten Körperaktivität an radioaktivem Jod finden sich nach 150 h etwa 23 % im Tumor, etwa 12 % in der Leber, etwa 5 % im Blut und etwa 3 - 4 % jeweils in den Muskeln und in der Schilddrüse. Der Rest ist natürlich, wie auch bei der Aufnahme von Fig 4, über den restlichen Körper verteilt.

[4] = BDIX rat with Ovarialcarcinom, 42 h after injection, 300 µC, % of total labelled agent in whole body
[5] = BD IX rat, Ovarialcarcinom, after 150 h, % of total body activity of radioactive iodine

With “Tetra-(4 Amino-phenoxy)-phthalocyanin -CMPEG [TAPPC-CMPEG]” the “"bleaching"” value [1] was “kaum "bleaching" festzustellen” and the “fotodynamische Aktivität” value [1] was “sehr hohe fotodynamische Aktivität bis über 720 nm”.
With “¹³¹-I-Hydroxyphenylaminomethandiphosphonat- (CMPEG)₂ [Verbindung aus Beispiel 2]” the “Konzentration des Mittels an der gewünschten Stelle, also am Tumor” value [2] was ≥ 30%, the Leber [3, 4] was “ca. 10%” and the Schilddrüse [3, 4] was < 2%. For the same substance, the “im Tumor konzentriert” value [3, 4] was “ca. 30 +/- 2%”.
In the case of “¹¹¹-In-Tetra-(hydroxyphenoxy)-phthalocyanin-(CMPEG)₄ [1c]”, the “Konzentration des Mittels an der gewünschten Stelle, also am Tumor” value [2] is reported as ≥ 30%.
With “¹³¹I-Tetra(hydroxyphenyl)-porphin-(CMPEG)₄ [1a]” the “Konzentration des Mittels an der gewünschten Stelle, also am Tumor” value [2] was ≥ 30%, the “im Blut” value [3, 5] was ~5% and the “im Tumor” value [3, 5] was ~23%. The “in den Muskeln” value [3, 5] was 3 - 4%, the “in der Leber” value [3, 5] was ~12% and the “in der Schilddrüse” value [3, 5] was 3 - 4%.
